These results are taken from patent US20170253660A1.

Assay [1] deals with human CD16 Fc receptor on NK92-MI cells (human) (UniProt P08637). As to the kind of experiment: cell-based or functional assay. The following applies: for LAN1-CD16 Potency: scale: relative to m3F8.
The target in assay [2] is human CD32 Fc receptor on NK92-MI cells (human). As to the kind of experiment: cell-based or functional assay. The following applies: for LAN1-CD32 Potency: scale: relative to m3F8.

Chain of human CD16 Fc receptor on NK92-MI cells (human) (P08637 17-254): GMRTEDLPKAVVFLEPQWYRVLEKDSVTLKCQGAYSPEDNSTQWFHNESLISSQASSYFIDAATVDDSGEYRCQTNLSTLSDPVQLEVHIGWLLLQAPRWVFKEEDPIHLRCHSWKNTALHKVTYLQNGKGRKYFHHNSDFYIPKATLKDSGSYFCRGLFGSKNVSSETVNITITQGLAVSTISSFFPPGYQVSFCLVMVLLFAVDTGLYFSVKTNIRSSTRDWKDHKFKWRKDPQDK

In assay [1], murine 3F8 (antibody) displayed an Antibody potency using NK92-CD16 ADCC, BE(1)N (relative potency (m3F8 = 1)) of 1; an Antibody potency using NK92-CD16 ADCC, LAN1 (relative potency (m3F8 = 1)) of 1; an Antibody potency using NK92-CD16 ADCC, NMB7 (relative potency (m3F8 = 1)) of 1; an Antibody potency using NK92-CD16 ADCC, SHEP1 (relative potency (m3F8 = 1)) of 1. In assay [1], this substance displayed an Antibody potency using NK92-CD16 ADCC, SKNLP (relative potency (m3F8 = 1)) of 1; an M14-CD16 Potency (relative to m3F8) of 1; an LAN1-CD16 Potency of 1. Further, in assay [2], the M14-CD32 Potency (relative to m3F8) was determined as 1 and the LAN1-CD32 Potency is 1.
Turning to ch14.18 (antibody), in assay [1], the Antibody potency using NK92-CD16 ADCC, LAN1 (relative potency (m3F8 = 1)) turned out to be 4; the Antibody potency using NK92-CD16 ADCC, SHEP1 (relative potency (m3F8 = 1)) turned out to be 3; the Antibody potency using NK92-CD16 ADCC, SKNLP (relative potency (m3F8 = 1)) worked out at 8; the M14-CD16 Potency (relative to m3F8) amounted to 9. In addition, in assay [2], the M14-CD32 Potency (relative to m3F8) was 21 and the LAN1-CD32 Potency worked out at 8.
As to 14.G2a (antibody), in assay [1], the Antibody potency using NK92-CD16 ADCC, BE(1)N (relative potency (m3F8 = 1)) came out at 1; the Antibody potency using NK92-CD16 ADCC, LAN1 (relative potency (m3F8 = 1)) came out at 0.4; the Antibody potency using NK92-CD16 ADCC, NMB7 (relative potency (m3F8 = 1)) amounted to 1; the Antibody potency using NK92-CD16 ADCC, SHEP1 (relative potency (m3F8 = 1)) was 1. In assay [1], the Antibody potency using NK92-CD16 ADCC, SKNLP (relative potency (m3F8 = 1)) worked out at 1; the M14-CD16 Potency (relative to m3F8) amounted to 1; the LAN1-CD16 Potency is 4. In assay [2], this substance had an M14-CD32 Potency (relative to m3F8) of 6 and an LAN1-CD32 Potency of 2.
Consider heat modified m3F8 (antibody), for which, in assay [1], the Antibody potency using NK92-CD16 ADCC, LAN1 (relative potency (m3F8 = 1)) came out at 0.2.
